Earlier results in publication PMC3212873.
Where “and” joins values, the source holds several entries; their conditions need not be identical. Identical values can stand only once.

Experiments:
Cys35 [1] = target: T1, Cys35 (UniProt position 36, EWCGPCKMIAP); test: UV-vis; conditions: reduced Trx-(SH)2, no protein ligand
Cys32 [2] = target: T2, Cys32 (UniProt position 33, FWAEWCGPCKM); test: UV-vis; conditions: reduced Trx-(SH)2, no protein ligand
Cys35 [3] = target: T1, Cys35; test: Raman; conditions: reduced Trx-(SH)2, no protein ligand
Cys32 [4] = target: T2, Cys32; test: Raman; conditions: reduced Trx-(SH)2, no protein ligand
Cys32 [5] = target: T2, Cys32; test: NMR; conditions: reduced Trx-(SH)2, no protein ligand
Cys32 [6] = target: T2, Cys32; test: fluorescence; conditions: reduced Trx-(SH)2, no protein ligand
Cys35 [7] = target: T1, Cys35; test: chemical modification; conditions: reduced Trx-(SH)2, no protein ligand
Cys32 [8] = target: T2, Cys32; test: chemical modification; conditions: reduced Trx-(SH)2, no protein ligand
Cys32 [9] = target: Cys32 (UniProt position 33, FWAEWCPYCKM); conditions: reduced variant

## Thioredoxin 1 (EcTrx) (Escherichia coli)
Cys35 [1]
  pKa: 9-10
Cys32 [2]
  pKa: 9-10
Cys35 [3]
  pKa: 7.9
Cys32 [4]
  pKa: 7.1
Cys32 [5]
  pKa: 7.4 and 7.0-7.1 and 7.5 or 9.2
Cys32 [6]
  pKa: 6.28
Cys35 [7]
  pKa: 9.0
Cys32 [8]
  pKa: 6.7

## Thioredoxin 1, glutaredoxin-like active-site variant (Grx-like EcTrx, CPYC) (Escherichia coli; G33P;P34Y)
Cys32 [9]
  pKa: 5.9
